Data as given in US20100028340A1.
Changes are numbered by the printed parent chain.

B1: h5F9.21 (antibody, human IgG1, V domains shown)
VH: EVQLVESGGGVVQPGRSLRLSCAASGFTFSNYGMNWIRQAPGKGLEWIGMIYYDSSEKHYADSVKGRFTISRDNSKNTLYLQMNSLRAEDTAVYYCAKGTTPDYWGQGTMVTVSS
VL: DVVLTQSPLSLPVTLGQPASISCRSSQSLEYSDGYTFLEWFLQKPGQSPQLLIYEVSNRFSGVPDRFSGSGSGTDFTLKISRVEAEDVGVYYCFQATHDPLTFGQGTKLEIKR
B2: h5F9.23 (antibody, human IgG1, V domains shown)
VH: B1 VH with V11L, R16G
VL: B1 VL with L42Q, K44R, Q50R
B3: h5F9.24 (antibody, human IgG1, V domains shown)
VH: B1 VH with V11L, R16G
VL: B1 VL with L42Q, K44R, Q50R, L51R
B4: h5F9.25 (antibody, human IgG1, V domains shown)
VH: B1 VH with V11L, R16G
VL: B1 VL
B5: chimeric 5F9 (antibody, V domains shown)
VH: B1 VH with V11L, R16S, R19K, A23V, G42K, Q82E, A88S, V93I, T109V
VL: B1 VL with S7T, L9V, P12S, Q17D, P18Q, I21M, S68I, A85P, V88L, Q105S

Tests used:
[1] = biological target: T1, recombinant purified human RGM A (R&D Systems Cat# 2459-RM) (human) (UniProt Q96B86); test: competition ELISA on coated hRGMA; competitor biotinylated chimeric 5F9
T1 sequence: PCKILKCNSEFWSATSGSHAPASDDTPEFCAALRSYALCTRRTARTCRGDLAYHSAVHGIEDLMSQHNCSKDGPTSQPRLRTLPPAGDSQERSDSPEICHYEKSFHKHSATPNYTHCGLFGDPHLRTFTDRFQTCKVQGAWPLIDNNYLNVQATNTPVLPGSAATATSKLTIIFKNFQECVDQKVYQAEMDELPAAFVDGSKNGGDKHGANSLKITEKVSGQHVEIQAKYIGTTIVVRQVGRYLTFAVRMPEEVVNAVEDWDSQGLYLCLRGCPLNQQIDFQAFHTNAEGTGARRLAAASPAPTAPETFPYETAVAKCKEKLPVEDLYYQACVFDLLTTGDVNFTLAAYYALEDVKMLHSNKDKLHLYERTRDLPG

[2] = biological target: T1, recombinant purified human RGM A (R&D Systems Cat# 2459-RM) (human); test: SPR (Biacore 3000), antibody captured by anti-human IgG Fc, hRGMA in solution, 25 °C

Row | Binder | IC50 [1] | Kd [2] | koff [2] | kon [2]
1 | B1 | 0.6 µg/mL | 7.59 nM | 0.00269 s⁻¹ | 355000 M⁻¹ s⁻¹
2 | B2 | 0.55 µg/mL | 4.37 nM | 0.00221 s⁻¹ | 507000 M⁻¹ s⁻¹
3 | B3 | 1.32 µg/mL |  |  | 
4 | B4 | 0.66 µg/mL | 5.78 nM | 0.00329 s⁻¹ | 570000 M⁻¹ s⁻¹
5 | B5 |  | 3.09 nM | 0.00236 s⁻¹ | 765000 M⁻¹ s⁻¹
